# ± gives the uncertainty stated by the source.
# Test: amyloid nucleation score (Sup35N fusion, yeast selection) (log enrichment); library NNK1; higher = more nucleation; inactive = no reads after selection
# In short: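 For the nucleation score, DiMSum gave the log enrichment of output over input reads, centred on the mode score of non-aggregating sequences. Psi-negative yeast expressing Sup35N fused to peptides of 20 random codons were induced with 100 μM copper sulfate for 24 hours and grown 7 days at 30°C on medium lacking adenine and uracil. Input and output plasmid inserts were Illumina-sequenced, and sequences with under 100 input reads were excluded.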
row,Substance,amyloid nucleation score
1,SNGIQPMERI,-1.01 ± 1.7
2,VKTISCYMWFNVFN,7.81 ± 0.05
3,HPYIWSVPDYKPFRAQAARV,-0.029 ± 1.6
4,LTGSISD,1.17 ± 0.73
5,PMLNFEIMVRHDRRRLYKVC,0.714 ± 0.42
6,EAYFFEFIKYLSAPAGSGGN,-0.855 ± 0.98
7,NILPSREYHVAKVAGCATGW,-0.618 ± 1.4
8,TLRVLFCRTMRRVDWSVQKV,-1.03 ± 1.7
9,LQKIMQKISPIFRNRIYVRR,-0.327 ± 0.48
10,DNRLEYSAGLVRVTRDAKGE,-0.106 ± 0.97
11,RDCPTNIVAGTLLCLMAEWT,-0.549 ± 1
12,TRAWNGGCGALCRITFDPSC,2.6 ± 0.13
13,LDRLMESGDFGWKYIMG,inactive
14,MFIYIYGVPVLTLWGFNVCV,0.856 ± 0.48
15,RCSFIS,-0.682 ± 0.75
16,YHVMD,inactive
17,FVAISVSTIRQCGVCRGGTC,4.29 ± 0.12
18,HAFFHYWPVCQWV,4.57 ± 0.1
19,VRLMQIWGV,-0.5 ± 2.1
20,LPFSLFSLD,0.308 ± 0.42
21,GIWSNCKYVFSGIMSSYMVS,0.739 ± 0.16
22,MCLLKGGSLVIVCGSGH,5.76 ± 0.061

row,Substance,amyloid nucleation score
1,KGLGRF,-0.788 ± 0.74
2,QGTRGRCGFSRDEVECVVRR,-0.673 ± 1
3,RCVFNRIKDFSVRDRWSFSG,1.03 ± 0.73
4,CVMWGTLRFLNLASGLFLCA,0.778 ± 0.93
5,QMYYFRCGQFTQGGNTQWLW,0.632 ± 0.39
6,SLLSFCQSSRVTESSMAYCT,inactive
7,GYSAYRFGQCMSETGRRRIH,1.42 ± 0.72
8,NINPLFI,1.96 ± 0.26
9,RAMCKNQCSYVMR,0.003 ± 0.37
10,WELARVDCNWFSHFWHAYMR,inactive
11,SMRLGKTIAVLVINEHGMLQ,2.17 ± 0.11
12,VFGCSGLDKSQWND,0.434 ± 0.45
13,TYCRQDRWVGSKKLSCTIDC,-0.025 ± 0.23
14,YFGVFCQRMMVTALSPKNPT,-0.369 ± 0.32
15,AFRSRFVIFHDGIRVLGYAD,-1.13 ± 2.1
16,WTWILPMVRTIIYQY,-0.356 ± 0.27
17,KSTSYNLIDIMAGSSLTNNR,0.274 ± 0.28
18,FQMNSCNWSVTGRIVFPDVY,1.58 ± 0.42
19,TKCGIAYFTQICLVPDVSNS,7.04 ± 0.085
20,NTCYALIMVLYRRDRGPANM,1.55 ± 0.17
21,EDRDTLKGM,0.806 ± 0.57
22,QRVGCKW,-0.771 ± 0.88

row,Substance,amyloid nucleation score
1,YNCWSSLNFYNPIFLRTLLG,3.46 ± 0.21
2,ILELGGCLVYYRGN,0.087 ± 0.69
3,EGMYC,0.058 ± 0.34
4,DSSLEVRRNRTSRLYAHFT,-0.218 ± 0.39
5,GLMGLFVKWYNVVQIFQSRM,-0.437 ± 0.61
6,SWCLKDMSNMLLASIRRFVL,inactive
7,GLFYW,1.06 ± 0.72
8,IMAGP,-0.624 ± 0.58
9,SNVAVRTSCYTGARMYTRWW,1.94 ± 0.19
10,YVWLMH,3.7 ± 0.11
11,PFVNW,0.432 ± 0.84
12,LDFRGMALENKVLDFRVCSV,0.658 ± 0.3
13,VLGGCYNFLLCF,7.713 ± 0.059
14,QDFSVTPHGV,0.228 ± 0.62
15,RRCMLLYCGLGAGALGSDGR,-0.539 ± 1.1
16,ILAIKWTSVWCMESDFPIEV,-0.402 ± 0.58
17,FMLVMFYWIYFNYSNVFRD,-0.669 ± 0.78
18,KRTESKLDYFKVRLCRTRFS,0.122 ± 0.43
19,SAGYYPVVLCALILEAEYQD,-0.541 ± 0.61
20,FGLTCRLHKAVFRFYNKRTS,inactive
21,SRVRVLASVSFMTVRMVFEV,0.436 ± 0.25
22,RVAPKGNRARDHVDSSSECS,2.14 ± 0.18

row,Substance,amyloid nucleation score
1,IYPCICSRNFDPKLYKVNTR,0.605 ± 0.66
2,LAFTCFH,0.568 ± 0.28
3,EMGSSLYTRHGNVRSLAFGW,0.242 ± 0.48
4,WHDKVKDFRIRAGHLSYSRG,0.486 ± 0.63
5,TGVTHC,inactive
6,ILVTLHMTCLRRSRNTLSFY,-0.45 ± 1.5
7,LNNRE,0.805 ± 0.78
8,NFKTSKWYESGRASRSS,-0.076 ± 0.41
9,GSMEHCNRNRFFFMGERLLR,-1.1 ± 2.7
10,NNLSANVSLGPGCAGGQPRA,0.764 ± 0.61
11,RRLYSKKILRDWLASSFSTD,inactive
12,SFSMFSEFSLLRCSAYRNPM,2.26 ± 0.063
13,LGNLM,-0.109 ± 0.95
14,HSYCLLLWYG,-1.74 ± 1.9
15,GRHRMVWGH,0.345 ± 0.93
16,KCWPLLRITSVCVFAFTGER,0.937 ± 0.58
17,IYFLR,-0.103 ± 0.42
18,GALVYAFYAAS,0.525 ± 0.89
19,NGTGLFNNLWVGSLRLRVTR,0.192 ± 0.56
20,KCLTFHVSNVFITANPLCLL,5.936 ± 0.054
21,GSDNLDFRCNWVYN,0.616 ± 0.69
